Results from the supplement of paper PMC10126150.
± gives the standard deviation of the averaged measurements.
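Also: ATP exposure 15 min at 22 °C before imaging.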

What follows are sequences tested on ATP (assay: switch fluorescence ratio, 500 uM ATP over buffer (Cy3 cluster intensity, sum of 5 cycles each) (fold (ratio)); higher = stronger signal-on switching upon ATP binding; sequences stand for … in TCGTCGGCAGCGTCAGATGTGTATAAGAGACAGTTTTTTTTTTTTTTTTTTTTTTTTT…TC). Conditions: aptamer strand: ATP DNA aptamer (quencher-CACCTGGGGGAGTATTGCGGAGGAAGG + anchor), 100 nM annealed; ATP concentration: 500 uM.
Method in brief: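 Five buffer/ATP imaging cycles were run on Cy3-labelled switching-strand clusters on a modified Illumina MiSeq flow-cell, with NaOH stripping and re-annealing between cycles. In each cycle, clusters annealed to 100 nM quencher-labelled ATP aptamer were imaged in selection buffer, then after 15 min with 500 uM ATP at 22 °C. Per cluster, the fluorescence ratio is summed target-cycle over summed buffer-cycle Cy3 intensity, averaged per switch-domain sequence. Only clusters within 100-1000 RFU were kept.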
TCCGATGGGG was tested, and the switch fluorescence ratio was 1.084 ± 0.0093.
TCCGATGTTT showed a switch fluorescence ratio of 1.76 ± 0.27.
Work on TCCGATTACG yielded a switch fluorescence ratio of 1.22 ± 0.037.
Work on TCCGATTTGT yielded a switch fluorescence ratio of 1.02 ± 0.08.
For TCCGCACAGA, the switch fluorescence ratio was 3.41 ± 0.89.
Sequence TCCGGAGGCA has a switch fluorescence ratio of 2.2 ± 0.059.
TCCGGCTGGT was tested, and the switch fluorescence ratio was 0.976 ± 0.024.
TCCGGGGGGC showed a switch fluorescence ratio of 1.15 ± 0.18.
Work on TCCGGGGTGC yielded a switch fluorescence ratio of 2.36 ± 1.
TCCGGGTCTG showed a switch fluorescence ratio of 1.03 ± 0.072.
TCCGGTACTG showed a switch fluorescence ratio of 1.16 ± 0.074.
In the case of TCCGTCTGTT, the switch fluorescence ratio is reported as 1.003 ± 0.0052.
Work on TCCGTGCAAG yielded a switch fluorescence ratio of 3.03 ± 0.48.
With TCCGTGCGGT the switch fluorescence ratio was 1.04 ± 0.066.
In the case of TCCGTGGGTG, the switch fluorescence ratio is reported as 1.38 ± 0.21.
TCCTAGCACT showed a switch fluorescence ratio of 1.65 ± 0.12.
In the case of TCCTAGGCGC, the switch fluorescence ratio is reported as 1.126 ± 0.0049.
In the case of TCCTAGTCAT, the switch fluorescence ratio is reported as 1.05 ± 0.036.
TCCTATGGGG gave a switch fluorescence ratio of 0.9886 ± 0.0033.
TCCTCACTGT showed a switch fluorescence ratio of 1.18 ± 0.034.
With TCCTCGGGGG the switch fluorescence ratio was 0.989 ± 0.027.
With TCCTGAGTAA the switch fluorescence ratio was 1.55 ± 0.25.
For TCCTGATTGC, the switch fluorescence ratio was 1.03 ± 0.038.
In the case of TCCTGGGGAT, the switch fluorescence ratio is reported as 0.99 ± 0.039.
In the case of TCCTGTATGT, the switch fluorescence ratio is reported as 0.9981 ± 0.0018.
TCCTGTTCTG gave a switch fluorescence ratio of 1.02 ± 0.041.
Work on TCCTTTAACG yielded a switch fluorescence ratio of 1.031 ± 0.0014.
TCCTTTAAGA showed a switch fluorescence ratio of 0.998 ± 0.036.
Sequence TCCTTTTTTG has a switch fluorescence ratio of 1 ± 0.016.
TCGAAAAGGA was tested, and the switch fluorescence ratio was 1.02 ± 0.026.
TCGAAAATGT was tested, and the switch fluorescence ratio was 1.01 ± 0.081.
Sequence TCGAAAGGCA has a switch fluorescence ratio of 1.04 ± 0.031.
TCGAAATTTT gave a switch fluorescence ratio of 1 ± 0.022.
Sequence TCGAACCGAG has a switch fluorescence ratio of 1.2 ± 0.024.
With TCGAACGTTG the switch fluorescence ratio was 1.034 ± 0.0026.
In the case of TCGAACTAGG, the switch fluorescence ratio is reported as 1 ± 0.018.
Work on TCGAACTGCT yielded a switch fluorescence ratio of 1.02 ± 0.02.
TCGAAGGGT gave a switch fluorescence ratio of 1 ± 0.037.
TCGAAGGTTT gave a switch fluorescence ratio of 1.01 ± 0.029.
TCGAATTTTT showed a switch fluorescence ratio of 1.02 ± 0.07.
For TCGACCCAGC, the switch fluorescence ratio was 1.104 ± 0.0032.
TCGACTATTA showed a switch fluorescence ratio of 1.05 ± 0.019.
TCGAGACTAG showed a switch fluorescence ratio of 1.02 ± 0.029.
TCGAGCGAAC gave a switch fluorescence ratio of 2.1 ± 0.53.
TCGAGCTAAT showed a switch fluorescence ratio of 1.41 ± 0.11.
TCGAGGGGAC was tested, and the switch fluorescence ratio was 1.67 ± 1.4.
In the case of TCGAGGGGAG, the switch fluorescence ratio is reported as 0.978 ± 0.016.
TCGAGGGGAT gave a switch fluorescence ratio of 1.01 ± 0.027.
With TCGAGGGGCG the switch fluorescence ratio was 1.06 ± 0.019.
In the case of TCGAGGGGGG, the switch fluorescence ratio is reported as 1.05 ± 0.096.
Work on TCGAGGGGTA yielded a switch fluorescence ratio of 1 ± 0.07.
For TCGAGTAAAA, the switch fluorescence ratio was 0.9902 ± 0.0039.
Sequence TCGAGTATGT has a switch fluorescence ratio of 0.983 ± 0.012.
In the case of TCGAGTGCGT, the switch fluorescence ratio is reported as 0.978 ± 0.014.
In the case of TCGATAGCGA, the switch fluorescence ratio is reported as 1.19 ± 0.028.
In the case of TCGATCATAA, the switch fluorescence ratio is reported as 0.9901 ± 0.0015.
TCGATGCAAG was tested, and the switch fluorescence ratio was 1.23 ± 0.015.
For TCGATGCAGC, the switch fluorescence ratio was 1.45 ± 0.31.
TCGATGGGGA gave a switch fluorescence ratio of 1.02 ± 0.015.
For TCGATTCAGC, the switch fluorescence ratio was 0.979 ± 0.025.
Sequence TCGCAGGATA has a switch fluorescence ratio of 1.08 ± 0.012.
For TCGCAGGCCT, the switch fluorescence ratio was 1.033 ± 0.003.
For TCGCAGTGGG, the switch fluorescence ratio was 1.12 ± 0.034.
TCGCCGCTAT showed a switch fluorescence ratio of 2.61 ± 0.34.
In the case of TCGCCTGGGG, the switch fluorescence ratio is reported as 1.1 ± 0.0046.
TCGCGAGTAA showed a switch fluorescence ratio of 1.04 ± 0.076.
For TCGCGCGGAG, the switch fluorescence ratio was 1.04 ± 0.024.
For TCGCGGAGGG, the switch fluorescence ratio was 0.981 ± 0.019.
TCGCGGAGTT showed a switch fluorescence ratio of 1 ± 0.011.
Work on TCGCGGCGCG yielded a switch fluorescence ratio of 0.972 ± 0.011.
TCGCTCATGG was tested, and the switch fluorescence ratio was 1.03 ± 0.015.
With TCGCTGAGG the switch fluorescence ratio was 0.9921 ± 0.00077.
For TCGGAAATTT, the switch fluorescence ratio was 1.002 ± 0.0079.
With TCGGAACTTG the switch fluorescence ratio was 1.01 ± 0.07.
With TCGGAAGGGG the switch fluorescence ratio was 1.17 ± 0.3.
TCGGAATAGA showed a switch fluorescence ratio of 1.22 ± 0.26.
In the case of TCGGAGAAGG, the switch fluorescence ratio is reported as 1.02 ± 0.064.
In the case of TCGGAGCCAC, the switch fluorescence ratio is reported as 3.16 ± 3.
TCGGAGCGGG gave a switch fluorescence ratio of 1.102 ± 0.0032.
Sequence TCGGAGCTTA has a switch fluorescence ratio of 2.977 ± 0.018.
TCGGAGCTTC showed a switch fluorescence ratio of 4.06 ± 1.4.
Sequence TCGGAGGGGG has a switch fluorescence ratio of 1.05 ± 0.2.
In the case of TCGGAGTACT, the switch fluorescence ratio is reported as 1.16 ± 0.03.
TCGGATAAGA was tested, and the switch fluorescence ratio was 0.995 ± 0.048.
In the case of TCGGATAGGG, the switch fluorescence ratio is reported as 1.04 ± 0.071.
For TCGGCATGAT, the switch fluorescence ratio was 0.998 ± 0.011.
Sequence TCGGCCGCTG has a switch fluorescence ratio of 1.05 ± 0.064.
TCGGCCGGGA showed a switch fluorescence ratio of 1.05 ± 0.011.
In the case of TCGGCCGTCC, the switch fluorescence ratio is reported as 1.056 ± 0.009.
Work on TCGGCGAATG yielded a switch fluorescence ratio of 1.02 ± 0.024.
For TCGGCGTGGG, the switch fluorescence ratio was 1.01 ± 0.025.
TCGGGAACAG was tested, and the switch fluorescence ratio was 1.02 ± 0.035.
TCGGGAGGTT showed a switch fluorescence ratio of 1.01 ± 0.031.
TCGGGATACT showed a switch fluorescence ratio of 1.86 ± 0.32.
TCGGGATAGG gave a switch fluorescence ratio of 1.05 ± 0.018.
TCGGGCGTAT was tested, and the switch fluorescence ratio was 1 ± 0.056.
TCGGGGAATG was tested, and the switch fluorescence ratio was 1.002 ± 0.0032.
Work on TCGGGGAGGA yielded a switch fluorescence ratio of 0.956 ± 0.026.
In the case of TCGGGGAGTT, the switch fluorescence ratio is reported as 0.982 ± 0.021.
With TCGGGGATAG the switch fluorescence ratio was 0.979 ± 0.047.
